# Molecular target: T1, human Claudin-1 (CLDN1) (human, UniProt O95832 1-211)
# T1 construct: whole, on cells; Transmembrane tight-junction protein, endogenously expressed on primary human cholangiocytes in the flow cytometry assay
# T1 sequence (looked up): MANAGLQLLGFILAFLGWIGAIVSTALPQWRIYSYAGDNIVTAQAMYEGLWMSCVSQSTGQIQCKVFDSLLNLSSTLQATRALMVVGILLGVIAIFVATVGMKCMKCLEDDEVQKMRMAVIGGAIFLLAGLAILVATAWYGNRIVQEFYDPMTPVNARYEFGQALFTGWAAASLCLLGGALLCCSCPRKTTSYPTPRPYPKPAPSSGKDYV
# Test: flow cytometry on primary human cholangiocytes (HBEpiC) after 10 ng/ml TNFalpha for 24 h; anti-human AF647 secondary antibody
# Protocol: Primary human cholangiocytes were purchased from Innoprot, Bizkaia, Spain (Human Biliary Epithelial Cells, HBEpiC, ref. P10654; Batch #21614) and cultured on poly-1-lysine-coated surfaces according to manufacturer's instructions. Following stimulation, with 10 ng/ml TNFα for 24 hours, cells were harvested for assessment of CLDN1 expression by flow cytometry using anti-CLDN1 mAb H3L3 (Colpitts et al. 2018) and an anti-human AF647-conjugated secondary antibody.
binder,measurement,value
"anti-CLDN1 mAb H3L3 (antibody, human IgG1, kappa, V domains shown, Humanized anti-Claudin-1 monoclonal antibody; also called CLDN1 H3L3; CLDN1-specific H3L3 mAb) VH: QVQLVESGGGVVQPGRSLRLSCLGSGFSFSSYGMNWVRQAPGKGLEWVASISPSGSYFYYADSVKGRFTISRDNSKNTLYLQMTSLRAEDTAIYYCARLPGFNPPFDHWGQGTLVTVSS VL: DIQMTQSPSSLSASVGDRVTITCKASQNVGGNVDWYQWKPGKAPKLLIYGASNRYTGVPDRFRGSGSGTDFTLTISSLQPEDVATYYCLQYKNNPWTFGGGTKVEIKR",binding result,binds
